The text below walks through data of US20220372542A1, “DETECTION OF ANALYTES BY PROTEIN SWITCHES” (ABBOTT DIABETES CARE INC., priority 2019, published 2022).

Series [1] can be described thus: Beaker calibration: glucose sensitivity of protein switch sensors. Type of series: biochemical. Conditions: Sensor active area 0.33 mm^2 with PVP membrane; 100 mM PBS, room temperature, 1-30 mM glucose.
The nature of series [2]: Beaker stability (long-term stability) of protein switch sensors. The following applies: Sensor in 30 mM glucose in 100 mM PBS at 33° C., after 1 day. Type of series: physicochemical. Here is the method: Beaker Stability. The beaker stability (long-term stability) of the sensor GDH-105 and the sensors comprising the protein switches GDH-2004, GDH-2007, GDH-2008, GDH-2009, GDH-2010, GDH-2011, GDH-2015, GDH-2018, GDH-2019, GDH-2005, GDH-2013, GDH-2016, and GDH-2024 described above were evaluated in 30 mM glucose in 100 mM PBS at 33° C. as shown in FIG. 8. After 4 days, each of the signals experienced a sensor drop (decreased stability for detecting glucose) at different rates, as shown in Table 10.
Beaker Stability. The beaker stability (long-term stability) of the GDH-105, GDH-2025, GDH-2026, GDH-2027, and GDH-2028 sensors were evaluated in 30 mM glucose in 100 mM PBS at 33° C. as shown in FIG. 11. After 1 day, each of the signals experience sensor drop (decreased stability for detecting glucose) of different rates, as provided in Table 12.

Series [3] in a line: Warfarin inhibition of protein switch sensors in test beaker. Type of series: biochemical. The following applies: 100 mM PBS 33° C., 10 mM NAD+; for effect of increasing warfarin concentrations on sensor signal: 5 mM glucose, 10, 30, 80, 180, 300 uM warfarin, FIGS. 12A, 12B, 13; for sensor response to glucose addition: glucose 5 mM. As to the method: Warfarin Sensor. Experimental GDH-105 and GDH-2016 glucose-responsive active areas were prepared using a single-layer active area system. The GDH was obtained from Codexis, Redwood City, Calif. The active area was coated onto a carbon working electrode in a single layer composition (Table 8). Following deposition of the active area, the active area was cured for three days at RT.
Experimental procedure. Testing of the GDH-105 and GDH-2016 sensors was conducted by immersing the electrode in a 100 mM PBS buffer solution at 33° C. NAD^+ (5 mM) supplied to a test beaker containing PBS buffer followed by the addition of glucose (1 mM).
Evolved Warfarin sensors. GDH-105, GDH-2016, GDH-2025, GDH-2026, GDH-2027, and GDH-2028 glucose-responsive active areas were prepared using a single-layer active area system. The GDH was obtained from Codexis, Redwood City, Calif. The active area (0.33 mm^2) was coated onto a carbon working electrode in a single layer composition (Table 8). Following deposition of the active area, the active area was cured for three days at room temperature.
Experimental procedure. Testing of the GDH-105, GDH-2016, GDH-2025, GDH-2026, GDH-2027, and GDH-2028 sensors was conducted by immersing the electrode in a 100 mM PBS buffer solution at 33° C. NAD^+(10 mM) supplied to a test beaker containing PBS buffer followed by the addition of glucose (5 mM).

B1: GDH-2025: Warfarin protein switch, SEQ ID NO: 1; SEQ ID NO:11 with mutation C96F (protein)
chain: AMYPDLKGKVVAITGAASGLGKAMAIRFGKEQAKVVINYYSNKQDPNEVKEEVIKAGGEAVVVQGDVTKEEDVKNIVQTAIKEFGTLDIMINNAGLFNPVPSHEMPLKDWDKVIGTNLTGAFLGSREAIKYFVENDIKGNVINMSSVHEVIPWPLASHYTASKGGMKLMTKTLALEYAPKGIRVNNIGPGAINTTINAEKFADPKQKADVESMIPMGYIGEPEEIAAVAAWLASKEASYVTGITLFADGGMTLYPSFQAGRG
B1 registered a Sensitivity in series [1] of 0.32 nA/mM. In addition, the “Signal drop (1 day)” value in series [2] was −58%. For the same molecule, in series [3], the “effect of increasing warfarin concentrations on sensor signal” value is “inhibition” and the “sensor response to glucose addition” value is on record as “showed response to glucose addition”.

B2: GDH-2028: Warfarin protein switch, SEQ ID NO: 15; mutations C96F; L252V (protein)
chain: MYPDLKGKVVAITGAASGLGKAMAIRFGKEQAKVVINYYSNKQDPNEVKEEVIKAGGEAVVVQGDVTKEEDVKNIVQTAIKEFGTLDIMINNAGLFNPVPSHEMPLKDWDKVIGTNLTGAFLGSREAIKYFVENDIKGNVINMSSVHEVIPWPLASHYTASKGGMKLMTKTLALEYAPKGIRVNNIGPGAINTTINAEKFADPKQKADVESMIPMGYIGEPEEIAAVAAWLASKEASYVTGITLFADGGMTVYPSFQAGRG
In the case of B2, the Sensitivity in series [1] came out at 0.09 nA/mM. For the same molecule, in series [2], the “Signal drop (1 day)” value is on record as −68%. In series [3], the “effect of increasing warfarin concentrations on sensor signal” value is listed as “inhibition” and the “sensor response to glucose addition” value is listed as “showed response to glucose addition”.
